Experiment in all cases: cell-based or functional assay
Test [1] has as its target BCMA on multiple myeloma target cells (KILR MM-1R; RPMI8226_Luc) (UniProt Q02223).
In test [2] the target is LCAR-B38M CAR (on LCAR-B38M CAR-T drug product cells).
In test [3] the target is KLK2 CAR (on KLK2 CAR-T cells).

In test [1], “LCAR-B38M CAR (on LCAR-B38M CAR-T drug product cells) (receptor)” registered a % Total Killing, sample PQ-0330 Donor B MOI = 1.5 on RPMI8226 luc target cells of 77% and a % Total Killing, sample SH19-28 on RPMI8226 Luc target cells of 67%.

As for “Soluble Human BCMA Protein (sBCMA) (from UniProt Q02223 1-54) (receptor)”, in test [2], the % CAR-T Killing of KILR MM-1R cells, baseline = CAR-T cells blocked with 50 ug/mL sBCMA lot C108P1-86BF2-NX stood at 42%; the % CAR-T Killing of KILR MM-1R cells, baseline = CAR-T cells blocked with 100 ug/mL sBCMA lot C108P1-86BF2-NX came to 59%; the % CAR-T Killing of KILR MM-1R cells, baseline = CAR-T cells blocked with 150 ug/mL sBCMA lot C108P1-86BF2-NX was 68%; the % CAR-T Killing of KILR MM-1R cells, baseline = CAR-T cells blocked with 200 ug/mL sBCMA lot C108P1-86BF2-NX was 74%. Further, in test [2], the % CAR-T Killing of KILR MM-1R cells, baseline = CAR-T cells blocked with 250 ug/mL sBCMA lot C108P1-86BF2-NX was determined as 79%; the % CAR-T Killing of KILR MM-1R cells, baseline = CAR-T cells blocked with 300 ug/mL sBCMA lot C108P1-86BF2-NX was 79%; the % CAR-T Killing of KILR MM-1R cells, baseline = CAR-T cells blocked with 400 ug/mL sBCMA lot C108P1-86BF2-NX turned out to be 62%; the % CAR-T Killing, Blocking method, sample PQ-0330 Donor B MOI = 1.5 on K562 Luc (non-B cell) target cells is -46%. Besides, in test [2], the % CAR-T Killing, Blocking method, sample PQ-0330 Donor B MOI = 1.5 on RPMI8226 luc target cells is 28%; the % CAR-T Killing, Blocking method, sample SH19-28 on K562 Luc (non-B cell) target cells is -41%; the % CAR-T Killing, Blocking method, sample SH19-28 on RPMI8226 Luc target cells came out at 29%; the % Control T Cell Killing (blocked baseline), Blocking method, sample PQ-0330 Donor B MOI = 1.5 on RPMI8226 luc target cells was determined as 67%. In test [2], this substance registered a % Control T Cell Killing (blocked baseline), Blocking method, sample SH19-28 on K562 Luc (non-B cell) target cells of 39% and a % Control T Cell Killing (blocked baseline), Blocking method, sample SH19-28 on RPMI8226 Luc target cells of 53%.

In test [3], “soluble human KLK2 protein (sKLK2) with C-terminal His6 tag (from UniProt P20151 25-261)” gave a % CAR-T Killing of KILR LNcaP-KLK2 cells, baseline = SH20-KLK2-004-CAR-T blocked w/ 125 ug/mL KLK2 soluble protein (500 mg/mL) of 107%.

With “soluble human KLK2 protein (sKLK2) with C-terminal His6 tag (from UniProt P20151 25-261) (enzyme)”, in test [3], the % CAR-T Killing of KILR LNcaP-KLK2 cells, baseline = SH20-KLK2-004-CAR-T blocked w/ 2.5 ug/mL KLK2 soluble protein (500 mg/mL) came to 49%; the % CAR-T Killing of KILR LNcaP-KLK2 cells, baseline = SH20-KLK2-004-CAR-T blocked w/ 12.5 ug/mL KLK2 soluble protein (500 mg/mL) stood at 68%; the % CAR-T Killing of KILR LNcaP-KLK2 cells, baseline = SH20-KLK2-004-CAR-T blocked w/ 25 ug/mL KLK2 soluble protein (500 mg/mL) was 79%; the % CAR-T Killing of KILR LNcaP-KLK2 cells, baseline = SH20-KLK2-004-CAR-T blocked w/ 50 ug/mL KLK2 soluble protein (500 mg/mL) was 96%. Moreover, in test [3], the % CAR-T Killing of KILR LNcaP-KLK2 cells, baseline = SH20-KLK2-004-CAR-T blocked w/ 75 ug/mL KLK2 soluble protein (500 mg/mL) was 106% and the % CAR-T Killing of KILR LNcaP-KLK2 cells, baseline = SH20-KLK2-004-CAR-T blocked w/ 100 ug/mL KLK2 soluble protein (500 mg/mL) is 111%.

The values above are taken from patent publication US20220057381A1.
